Assay results from patent US20210070804A1 (published 2021).

Columns and labels:
[1] = target: clone nr 1.8 (SEQ ID NO: 4), monoclonal phage; assay: phage ELISA, dilution series 1/10 to 1/1000
[2] = target: clone nr 4.10 (SEQ ID NO: 6), monoclonal phage; assay: phage ELISA, dilution series 1/10 to 1/1000
[3] = target: clone nr 1.9 (SEQ ID NO: 5), monoclonal phage; assay: phage ELISA, dilution series 1/10 to 1/1000
TAMRA-labeled JB006 = assay: fluorescence polarization with TAMRA-labeled JB006
[4] = target: clone nr 1.4 (SEQ ID NO: 3), monoclonal phage; assay: cross reactivity phage ELISA on coated toxin
[5] = target: clone nr 1.2 (SEQ ID NO: 2), monoclonal phage; assay: cross reactivity phage ELISA on coated toxin
[6] = target: clone nr 1.1 (SEQ ID NO: 1), monoclonal phage; assay: monoclonal phage ELISA on coated myotoxin II
[7] = target: clone nr 1.8 (SEQ ID NO: 4), monoclonal phage; assay: cross reactivity phage ELISA on coated toxin
[8] = target: clone nr 1.1 (SEQ ID NO: 1), monoclonal phage; assay: cross reactivity phage ELISA on coated toxin
[9] = target: clone nr 4.10 (SEQ ID NO: 6), monoclonal phage; assay: cross reactivity phage ELISA on coated toxin
[10] = target: clone nr 1.9 (SEQ ID NO: 5), monoclonal phage; assay: cross reactivity phage ELISA on coated toxin

Measured: binding result

B1: Myotoxin II from venom of Bothrops asper (other)
chain: SLFELGKMILQETGKNPAKSYGAYGCNCGVLGRGKPKDATDRCCYVHKCCYKKLTGCNPKKDRYSYSWKDKTIVCGENNSCLKELCECDKAVAICLRENLNTYNKKYRYYLKPLCKKADAC
not listed: [7] | [8] | [9] | [10]
binds: all other assays above

B2: α-cobra toxin (a-cbtx) from Naja kaouthia (other)
chain: IRCFITPDITSKDCPNGHVCYTKTWCDAFCSIRGKRVDLGCAATCPTVKTGVDIQCCSTDNCNPFPTRKRP
binds: [7] | [8] | [9] | [4] | [5] | [10]
